# Read-outs that look alike come from different tables or passages of the source. Ends that are not written are not given here. * marks the point of attachment. Dansyl = CN(C)c1cccc2c(S(=O)(=O)*)cccc12
# Assays:
# [1] = target: T1, bBACH1-P phosphopeptide (Homo sapiens, UniProt Q9BX63, also: phosphoserine (position not given here), biotin (position not given here)); assay: SPR steady-state
# T1 chain: SRSTSPTFNK
# [2] = target: T1, bBACH1-P phosphopeptide; assay: SPR steady-state
# [3] = target: T2, BACH1-P phosphopeptide (Homo sapiens, UniProt Q9BX63, also: phosphoserine (position not given here)); assay: ITC
# T2 chain: SRSTSPTFNK
# [4] = target: T3, dBACH1-P phosphopeptide (Homo sapiens, UniProt Q9BX63, also: phosphoserine (position not given here)); assay: stopped-flow fluorescence
# T3 chain: Dansyl-SRSTSPTFNK
# [5] = target: T3, dBACH1-P phosphopeptide; assay: fluorescence anisotropy
# [6] = target: T1, bBACH1-P phosphopeptide; assay: SPR steady-state
# [7] = target: T1, bBACH1-P phosphopeptide; assay: SPR kinetics
# [8] = target: T2, BACH1-P phosphopeptide; assay: ITC
# [9] = target: T1, bBACH1-P phosphopeptide; assay: SPR kinetics
# [10] = target: T2, BACH1-P phosphopeptide; assay: ITC
# [11] = target: T2, BACH1-P phosphopeptide; assay: ITC
# [12] = target: T4, CtIP phosphopeptide phosphopeptide (Homo sapiens, UniProt Q99708, also: phosphoserine (position not given here)); assay: SPR
# T4 chain: PTRVSSPVFGAT
# [13] = target: T2, BACH1-P phosphopeptide; assay: ITC
# [14] = target: T3, dBACH1-P phosphopeptide; assay: stopped-flow fluorescence
# [15] = target: T1, bBACH1-P phosphopeptide; assay: SPR steady-state
# [16] = target: T1, bBACH1-P phosphopeptide; assay: ITC
binder,measurement,setting,value
BRCA1-BRCT 1646-1859 (protein) VNKRMSMVVSGLTPEEFMLVYKFARKHHITLTNLITEETTHVVMKTDAEFVCERTLKYFLGIAGGKWVVSYFWVTQSIKERKMLNEHDFEVRGDVVNGRNHQGPKRARESQDRKIFRGLEICCYGPFTNMPTDQLEWMVQLCGASVVKELSSFTLGTGVHPIVVVQPDAWTEDNGFHAIGQMCEAPVVTREWVLDSVALYQCQELDTYLIPQIP,Kd,[1],530 nM
same,Kd,[2],260 nM
same,Kd,[3],280 nM
same,Kd,[4],110 nM
same,Kd,[5],180 nM
same,Kd,[6],560 nM
same,Kd,[7],90 nM
same,Kd,[8],500 nM
same,Kd,[9],430 nM
same,Kd,[10],410 nM
same,Kd,[11],490 nM
same,Kd,[12],1300 nM
same,Kd,[13],330 nM
same,Kd,[14],200 nM
same,Kd,[15],350 nM
same,Kd,[16],230 nM
